According to the supplement of paper PMC12764529:
± gives the half width of the 95% confidence interval.

Assays:
[1] = folding stability dG unfold (combined trypsin and chymotrypsin); higher = more stable
Outline: (§1)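 Designed mini-proteins (under 80 residues, no cysteine) in a PA-tagged cDNA display construct were digested with trypsin and chymotrypsin. Each protease was used at 11 concentrations (threefold dilutions) plus a no-protease condition, followed by sequencing. K50 was inferred by Bayesian fitting of sequencing counts, and unfolding free energy was derived against a sequence-predicted unfolded-state K50 and a shared folded-state K50, per protease or combined. Only designs with AlphaFold2 dimer inter-PAE above 15 were kept.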

[2] = folding stability dG unfold from chymotrypsin proteolysis; higher = more stable
Outline: as §1

[3] = folding stability dG unfold from trypsin proteolysis; higher = more stable
Outline: as §1

| Sequence | folding stability dG unfold [1] [kcal/mol] | folding stability dG unfold [2] [kcal/mol] | folding stability dG unfold [3] [kcal/mol] |
| --- | --- | --- | --- |
| SAGGSAGGSAGGISPSANVKLVAVDPERGLVVAVAKDPNSGSVSVVVFDANGNSSILPASAGGSAGGSAGGS [r10_450_TrMRF] | 0.267 ± 0.043 | 0.495 ± 0.029 | -0.317 ± 0.079 |
| SAGGAVEITDISSKTVTEPVTFENGTVVPQERTAGTVTTTENGTPVATVPFTSEEELEEAIARALAESAGGS [r8_21_JUSTAS] | 0.869 ± 0.1 | 1.24 ± 0.034 | -0.276 ± 0.22 |
| SAGGSAGGSAVTVDPSSNVVTTTDPATGTSTVTTTPPLPNGTPVLTSTTTTDAAGTPTTTTVTSAGGSAGGS [r12_952_JUSTAS] | 2.04 ± 0.059 | 1.38 ± 0.049 | 2.63 ± 0.12 |
| SAGGSAGGSKKPKITITIEILVKNEDGKLYLFRIEIEINENGEISIKMEIFELKDIKPGDILLSAGGSAGGS [r12_38_TrROS_Hall] | 3.56 ± 0.38 | 3.94 ± 0.13 | 2.63 ± 0.19 |
| SGVEYIEIPLEVTLDAPLEKAFEFLEDLAEEFGLGDIEVLEVEVDPETGKVRVKALARIAIAPPPPPSLESA [r9_918_TrMRF] | 3.19 ± 0.17 | 3.53 ± 0.11 | 2.83 ± 0.044 |
| SAGGSAGGSAGGIKKGDKIKIVKVKVEKRYDKDGKLVEERIVSIEEEEIEVPSLEDLLKASAGGSAGGSAGG [r7_439_TrROS_Hall] | 0.654 ± 0.25 | 0.739 ± 0.06 | 0.732 ± 0.14 |
| SAGGSAGGSAGGGIKIKIISVKPLPDGSVLVKAKIIFPDGKEKEILILFNKNGEIKIFEKSAGGSAGGSAGG [r7_860_TrMRF] | 3.71 ± 0.087 | 4.03 ± 0.069 | 3.04 ± 0.11 |
| SAKKAEEIAEKVEKTIKEAAKEKGYDVNIKVKATKGKDGKVTVYIDFDSPENAKEFIEKLPKSVNVVIASAG [r14_491_TrMRF] | 1.41 ± 0.11 | 1.42 ± 0.059 | 1.3 ± 0.052 |
| SAGGIKELAKKGYEIKEVTVRVRNKDGSVYEITEIKVVDGELYIKVKNKKTGKIEEKKIPLKDIEIVPSAGG [r13_340_TrROS_Hall] | 1.83 ± 0.09 | 2.12 ± 0.029 | 1.19 ± 0.045 |
| SAGGSAGGSAMKIVEWNEETGELTIELPDGTKITLKVENGEITEVKVEPLPPVPPDLPELKSAGGSAGGSAG [r3_406_TrROS_Hall] | 2.24 ± 0.24 | 2.45 ± 0.16 | 0.537 ± 0.15 |
| SAGGKIPPGMKLEIEDINIEFYNNGWIKITVKMTIWAPDGKTMTMTMTIVIPIRPPPPPPNDPENNESAGGS [r8_90_TrROS] | 4.29 ± 0.44 | 4.77 ± 0.24 | 3.91 ± 0.45 |
| SAGGMKIEITVSPVGDVVNVEVKIELPEGPVEVVDETPAEVAPDGSIHIKLKLKLPNGPWLEMEIEVSAGGS [r8_449_JUSTAS] | 3.87 ± 0.33 | 3.97 ± 0.15 | 2.91 ± 0.24 |
| SAMEYTLEFDNLKGLTADEIEKAFRDEGYPDVKINGIRRNPDDWTITVHYGPGMPPNRVQNAIRKAIQESAG [r14_657_TrROS] | 1.62 ± 0.11 | 1.87 ± 0.091 | 1.21 ± 0.045 |
| SAGGSAGGSMTIEEIKKLAEELGIEKVEIEKVKDGYYKIKIYNKKTGKKIEIIIKVNKDGKIVSAGGSAGGS [r12_170_TrROS_Hall] | 3.61 ± 0.26 | 3.9 ± 0.091 | 2.27 ± 0.17 |
| SADEALRRLLENMTPEELAALLAPAVPGPPVEVLVVPREVLPEVLRRLREEFDVEFEEEGDFVRIVVRGSAG [r14_7_TrMRF] | 2.73 ± 0.04 | 2.915 ± 0.016 | 2.28 ± 0.029 |
| SAGGSAGGSMIEVVKFPNGITLEYFPETNTYRAFNPSTNTTTTFPPGVSFEEAVEAVKKGNLVSAGGSAGGS [r12_832_JUSTAS] | 3.88 ± 0.041 | 3.82 ± 0.017 | 4.1 ± 0.091 |
| SAGGSAGGSMKTITVPPEVLAALPLEEIVERNTSPDEEVEVEFVEEPGPVTVIIDTKKKPEHHSAGGSAGGS [r12_716_JUSTAS] | 0.252 ± 0.092 | 0.551 ± 0.015 | -0.95 ± 0.26 |
| SAGGSAGGSAGGMNPVSKVTKHSGPNGQVTETTTYFDPASGKTTVTYTDLVTGTTSTISTSAGGSAGGSAGG [r11_1063_JUSTAS] | -0.823 ± 0.17 | -1.02 ± 0.41 | -0.579 ± 0.047 |
| SAGGMYKARIEVKNPEEVKKKIKELGLEFEIETRPDGSVDIYFPPEYVDKLIKAFPGEKIEIEPIPDESAGG [r13_261_TrMRF] | 3.29 ± 0.14 | 3.38 ± 0.11 | 2.94 ± 0.15 |
| SAGGKPRILLRRETAPDGRPYYVLQVLRRDPSDDGWTPVLEHRFETPEEAERYARELAEKTGYELVGSAGGS [r16_512_TrMRF] | 4.72 ± 0.075 | 4.9 ± 0.11 | 4 ± 0.11 |
| SAMVIIRVENKDGKTIEIAIPVRNEDGKLTKEELEELAKRLAEELAEELGLEDVKVEVEVRPLSEEELKSAG [r14_378_TrROS_Hall] | 2.35 ± 0.17 | 2.68 ± 0.081 | 1.64 ± 0.091 |
